The target of the series is SARS-CoV-2 spike S1+S2 ECD-His (SARS-CoV-2 (2019-nCoV), UniProt P0DTC2 16-1213). Put plainly: SPR.

This is an account of results in publication PMC8133803.

As to CACCAATATTTACGTTCTACTCTCCAATA (ssDNA, 5' BiotinTEG) [apt-NS], the binding result was “no binding”.
